Experimental data: publication PMC7202667, “UNBRANCHED3 Expression and Inflorescence Development is Mediated by UNBRANCHED2 and the Distal Enhancer, KRN4, in Maize”

T1: UB2 (UNBRANCHED2), GST fusion (Zea mays, UniProt A0A804LTB0 =M+82-402, internal_change)
T1 sequence: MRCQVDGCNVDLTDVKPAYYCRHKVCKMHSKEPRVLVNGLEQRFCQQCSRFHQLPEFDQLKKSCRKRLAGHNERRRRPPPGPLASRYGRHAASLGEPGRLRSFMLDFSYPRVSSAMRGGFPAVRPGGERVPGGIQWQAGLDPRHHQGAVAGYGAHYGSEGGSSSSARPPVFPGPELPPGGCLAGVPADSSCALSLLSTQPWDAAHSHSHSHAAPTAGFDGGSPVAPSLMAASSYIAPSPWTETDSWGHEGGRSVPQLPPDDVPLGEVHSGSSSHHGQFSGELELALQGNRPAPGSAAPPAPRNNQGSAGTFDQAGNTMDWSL


Biological target: T1, UB2 (UNBRANCHED2), GST fusion
Experiment: EMSA; poly(dI-dC), 5 mM MgCl2; EMSA: 10 mM Tris pH 7.5, 50 mM KCl, 1 mM DTT, 5 mM MgCl2, 2.5% glycerol, poly(dI-dC), 0.05% NP-40; 20-40 ng protein, probe 10 fM (so in the source); room temperature
Conditions: protein: recombinant; tags: N-GST (pGEX-4T-1); label: 5'-biotin; blunt

Binder | binding result
KRN4-P4 probe (EP4) (dsDNA) DNA 1: GCGTGTTGCCTACTTGCACTAGAGAGTACGTGAGGCAAACCAAATGTTTTCTAGCGAAC DNA 2: GTTCGCTAGAAAACATTTGGTTTGCCTCACGTACTCTCTAGTGCAAGTAGGCAACACGC | binds
pUB3-P1 probe (EPUB3) (dsDNA) DNA 1: GCCGAGGGCTTTTTGTAGACGCCAGGTACTTGCGCTTGTGGCGGCGAGCCGAGCG DNA 2: CGCTCGGCTCGCCGCCACAAGCGCAAGTACCTGGCGTCTACAAAAAGCCCTCGGC | binds
